Changes are numbered by the printed parent chain.
T1: recombinant cynomolgus monkey C5 (cynomolgus monkey, UniProt P01031 20-1676 (human entry), limits assumed)
T1 construct: also called cynoC5
T1 chain: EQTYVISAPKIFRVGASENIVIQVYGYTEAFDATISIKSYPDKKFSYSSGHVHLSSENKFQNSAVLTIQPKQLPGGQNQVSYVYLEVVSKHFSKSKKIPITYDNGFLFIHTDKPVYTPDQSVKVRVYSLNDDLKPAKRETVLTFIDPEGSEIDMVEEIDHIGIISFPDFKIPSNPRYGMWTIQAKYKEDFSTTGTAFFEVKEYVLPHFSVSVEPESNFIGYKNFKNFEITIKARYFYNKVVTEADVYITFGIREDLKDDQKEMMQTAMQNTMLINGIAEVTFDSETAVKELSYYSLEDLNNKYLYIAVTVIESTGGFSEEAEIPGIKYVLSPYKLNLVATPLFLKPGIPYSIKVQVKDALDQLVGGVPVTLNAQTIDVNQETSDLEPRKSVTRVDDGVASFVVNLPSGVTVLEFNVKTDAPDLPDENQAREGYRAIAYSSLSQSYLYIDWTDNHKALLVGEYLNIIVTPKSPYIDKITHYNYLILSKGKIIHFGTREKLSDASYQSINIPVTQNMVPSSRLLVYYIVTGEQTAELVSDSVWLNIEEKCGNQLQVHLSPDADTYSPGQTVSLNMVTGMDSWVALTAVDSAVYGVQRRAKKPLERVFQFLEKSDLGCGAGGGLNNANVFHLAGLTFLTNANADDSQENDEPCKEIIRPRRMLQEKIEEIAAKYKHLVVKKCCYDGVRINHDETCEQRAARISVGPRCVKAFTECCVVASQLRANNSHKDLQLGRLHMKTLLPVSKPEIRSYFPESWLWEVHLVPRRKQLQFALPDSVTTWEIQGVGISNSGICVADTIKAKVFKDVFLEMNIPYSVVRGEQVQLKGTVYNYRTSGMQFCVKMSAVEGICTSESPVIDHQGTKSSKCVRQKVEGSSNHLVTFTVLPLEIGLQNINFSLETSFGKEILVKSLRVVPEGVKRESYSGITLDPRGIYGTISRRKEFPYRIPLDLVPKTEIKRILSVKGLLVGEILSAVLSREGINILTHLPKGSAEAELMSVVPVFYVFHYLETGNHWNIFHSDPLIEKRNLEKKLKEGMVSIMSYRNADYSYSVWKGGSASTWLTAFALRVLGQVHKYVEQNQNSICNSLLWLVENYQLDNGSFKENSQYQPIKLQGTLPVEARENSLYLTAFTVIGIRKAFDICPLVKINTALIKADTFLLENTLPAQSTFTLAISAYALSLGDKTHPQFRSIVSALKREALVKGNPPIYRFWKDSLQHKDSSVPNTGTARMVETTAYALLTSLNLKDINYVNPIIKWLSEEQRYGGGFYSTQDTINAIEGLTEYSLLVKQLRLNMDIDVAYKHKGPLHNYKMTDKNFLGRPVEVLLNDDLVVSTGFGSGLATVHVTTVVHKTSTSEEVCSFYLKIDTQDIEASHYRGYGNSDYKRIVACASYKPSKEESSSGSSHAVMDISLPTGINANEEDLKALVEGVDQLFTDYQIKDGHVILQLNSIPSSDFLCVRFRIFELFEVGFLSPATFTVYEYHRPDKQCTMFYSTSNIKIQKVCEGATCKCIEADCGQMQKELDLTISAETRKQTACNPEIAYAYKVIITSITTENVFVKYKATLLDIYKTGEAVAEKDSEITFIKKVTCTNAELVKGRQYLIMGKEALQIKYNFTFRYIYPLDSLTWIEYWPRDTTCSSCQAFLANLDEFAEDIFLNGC

T2: 481-660
T2 construct: Expressed in E. coli
T2 GST fusion polypeptide: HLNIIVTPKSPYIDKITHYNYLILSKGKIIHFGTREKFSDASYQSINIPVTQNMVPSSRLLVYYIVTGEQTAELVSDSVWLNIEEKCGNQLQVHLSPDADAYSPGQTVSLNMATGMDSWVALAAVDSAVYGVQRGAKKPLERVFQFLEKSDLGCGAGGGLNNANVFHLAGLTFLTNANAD

T3: 161-340
T3 construct: Expressed in E. coli
T3 GST fusion polypeptide: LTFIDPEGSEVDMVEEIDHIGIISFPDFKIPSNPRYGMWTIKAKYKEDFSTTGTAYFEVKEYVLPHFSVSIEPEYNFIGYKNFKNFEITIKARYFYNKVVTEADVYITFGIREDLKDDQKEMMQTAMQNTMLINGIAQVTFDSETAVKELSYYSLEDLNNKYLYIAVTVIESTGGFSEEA

T4: 321-500
T4 construct: Expressed in E. coli
T4 GST fusion polypeptide: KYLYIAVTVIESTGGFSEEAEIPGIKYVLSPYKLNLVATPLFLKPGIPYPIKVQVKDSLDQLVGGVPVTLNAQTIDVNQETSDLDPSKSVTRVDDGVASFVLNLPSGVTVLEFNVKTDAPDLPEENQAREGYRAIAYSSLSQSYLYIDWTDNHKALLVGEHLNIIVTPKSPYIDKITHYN

B1: 305LO16-SG422 (antibody, human IgG4, V domains shown)
VH: QVQLVESGGGLVQPGRSLRLSCAASGFTVHSSYYMAWVRQAPGKGLEWVGAIFTGSGAEYKAEWVKGRFTISRDNSKNTLYLQMNSLRAEDTAVYYCASDAGYDYPTHAMHYWGRGTLVTVSS
VL: DIQMTQSPSSLSASVGDRVTITCRASQGISSSLAWYQQKPGKAPKLLIYGASETESGVPSRFSGSGSGTDFTLTISSLQPEDFATYYCQNTKVGSSYGNTFGGGTKVEIKR
notes: Modified human IgG4 CH SG422, human CL SK1
B2: 305LO20-SG115 (antibody, human IgG1)
heavy: QVQLVESGGGLVQPGGSLRLSCAASGFTVHSSYYMAWVRQAPGKGLEWVGAIFTGSGAEYKAEWAKGRVTISKDTSKNQVVLTMTNMDPVDTATYYCASDAGYDYPTHAMHYWGQGTLVTVSSASTKGPSVFPLAPSSKSTSGGTAALGCLVKDYFPEPVTVSWNSGALTSGVHTFPAVLQSSGLYSLSSVVTVPSSSLGTQTYICNVNHKPSNTKVDKKVEPKSCDKTHTCPPCPAPELRRGPKVFLFPPKPKDTLMISRTPEVTCVVVDVSHEDPEVKFNWYVDGVEVHNAKTKPREEQYNSTYRVVSVLTVLHQDWLNGKEYKCKVSNKGLPSSIEKTISKAKGQPREPQVYTLPPSREEMTKNQVSLTCLVKGFYPSDIAVEWESNGQPENNYKTTPPVLDSDGSFFLYSKLTVDKSRWQQGNVFSCSVLHEALHAHYTRKELSLSP
light: DIQMTQSPSSLSASVGDRVTITCRASQGISSSLAWYQQKPGQAPRLLIYGASETESGVPSRFSGSGSGTDFTLTISSLQPEDFATYYCQNTKVGSSYGNTFGGGTKVEIKRTVAAPSVFIFPPSDEQLKSGTASVVCLLNNFYPREAKVQWKVDNALQSGNSQESVTEQDSKDSTYSLSSTLTLSKADYEKHKVYACEVTHQGLSSPVTKSFNRGEC
notes: Modified human IgG1 CH SG115, human CL SK1
B3: 305LO23-SG115 (antibody, human IgG1, V domains shown)
VH: QVQLVESGGGLVQPGGSLRLSCAASGFTVHSSYYMAWVRQAPGKGLEWVSGIFTGSGATYKAEWAKGRVTISKDTSKNQVVLTMTNMDPVDTATYYCASDAGYDYPTHAMHYWGQGTLVTVSS
VL: B1 VL with K42Q, K45R, E53T, E55Q
notes: as for B2
B4: CFA0501 (antibody, V domains shown)
VH: QSVEESGGRLVTPGTPLTLTCTASGFSLSSYYMNWVRQAPGKGLEWIGMIYGSGATYYASWAKGRFTISKTSSTTVDLKMTSLTTEDTATYFCARQIYSGDNNDNFWGPGTLVTVSS
VL: AYDMTQTPASVEVAVGGTVTINCQASESISNWLAWYQQKPGQRPKLLIYRASTLASGVSSRFKGSGSGTQFTLTISGVECDDAATYYCQQDYSSSNVDNTFGGGTKVVVE
notes: Chimeric, rabbit V regions; also called CFA0501-F760G4
B5: CFA0538 (antibody, V domains shown)
VH: B4 VH
VL: B4 VL with K106T
notes: Chimeric, rabbit V regions; also called CFA0538-F760G4
B6: CFA0666 (antibody, V domains shown)
VH: QSVEESGGRLVTPGTPLTLTCTVSGFSLSTYAMGWVRQAPGKGLEWIGTIDTGDNSFYANWAKGRFTISKTSTTVDLKITSPTAEDTATYFCARNDGSVYNLFNLWGPGTLVTVSS
VL: DVVMTQTPASVSAAVGGTVTIKCQASENIYSALSWYQQKPGLRPRLLIYYASTLASGVPSRFKGSRSGTEFTLTISDLECADAATYYCQQYYDINSVDNTFGGGTKVVVE
notes: Chimeric, rabbit V regions; also called CFA0666-F760G4
B7: CFA0599 (antibody, V domains shown)
VH: QSVEESGGRLVTPGTPLTLTCTVSGLSLSDNTMTWVRQAPGKGLEWIGIISFGGDAYYASWAKGRFPISKTSTTVDLRITSPTTEDTATYFCARVGAGNIFWYFDLWGPGTLVTVSS
VL: AYDMTQTPASVEVSVGGTVTIKCQASESIYSALAWYQQKPGQPPKLLIYSASTLASGVPSRFKGSGSGTEYTLTISDLECADAATYYCQQYYSSTNVHNSFGGGTTVVVE
notes: Chimeric, rabbit V regions; also called CFA0599-F760G4

biological target: T5, recombinant human C5 (human, UniProt P01031 20-1676); test: SPR (Biacore), 37C, association at pH 7.4, dissociation at pH 5.8
T5 construct: Also used for the C5 of normal human serum in the functional rows; also called hC5; rhC5
Description: (§1) The kinetic parameters of anti-C5 antibodies against recombinant human C5 were assessed at 37° C. using BIACORE® T200 instrument (GE Healthcare) at three different conditions; (1) both association and dissociation were at pH7.4, (2) both association and dissociation were at pH5.8, and (3) association was at pH7.4 but dissociation was at pH5.8. ProA/G (Pierce) was immobilized onto a CM1 sensorchip using amine coupling kit (GE Healthcare) according to the recommended settings by GE Healthcare. Antibodies and analytes for condition (1) and (3) were diluted in ACES pH7.4 buffer (20 mM ACES, 150 mM NaCl, 1.2 mM CaCl₂, 0.05% Tween 20, 0.005% NaN₃) and for condition (2) they were diluted in ACES pH5.8 buffer (20 mM ACES, 150 mM NaCl, 1.2 mM CaCl₂, 0.05% Tween 20, 0.005% NaN₃). […] The surface was regenerated using 25 mM NaOH. Kinetic parameters at condition (1) and (2) were determined by fitting the sensorgrams with a 1:1 binding model and the dissociation rate at condition (3) was determined by fitting the sensorgrams with a 1:1 dissociation for MCK model using BIACORE® T200 Evaluation software, version 2.0 (GE Healthcare). pH dependency of all antibodies were shown as ratio of dissociation rate of condition (2) and (1).

Binder	koff [s⁻¹]
B1	0.0161
B2	0.0161
B3	0.0173

biological target: T5, recombinant human C5; test: SPR (Biacore), ratio of dissociation rates of conditions (2) and (1)
Description: as §1

Binder	pH dependency (kd pH 5.8 / kd pH 7.4) [fold]
B1	21.1
B2	17.5
B3	20.2

biological target: T6, C5 peptide 33-111 fused to GST-tag (human, UniProt P01031 33-111); test: summary drawing of the binding reactions to C5 beta-chain fragments
T6 construct: not shown: GST-tag (glutathione S-transferase); vector and linker not restated
T6 sequence (P01031 33-111): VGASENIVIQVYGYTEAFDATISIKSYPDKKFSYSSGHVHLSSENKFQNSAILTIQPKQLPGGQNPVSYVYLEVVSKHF

Binder	binding result
B4	no binding
B5	no binding
B6	no binding
B7	no binding

biological target: T7, C5 peptide 45-111 fused to GST-tag (human, UniProt P01031 45-111); test: as above
T7 construct: not shown: GST-tag (glutathione S-transferase); vector and linker not restated
T7 sequence (P01031 45-111): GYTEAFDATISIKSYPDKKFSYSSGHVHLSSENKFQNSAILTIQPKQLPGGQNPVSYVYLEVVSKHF

Binder	binding result
B4	no binding
B5	no binding
B6	no binding
B7	no binding

biological target: T8, C5 peptide 45-124 fused to GST-tag (human, UniProt P01031 45-124); test: as above
T8 construct: not shown: GST-tag (glutathione S-transferase); vector and linker not restated
T8 sequence (P01031 45-124): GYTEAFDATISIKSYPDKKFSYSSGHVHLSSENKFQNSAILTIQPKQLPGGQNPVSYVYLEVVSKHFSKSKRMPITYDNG

Binder	binding result
B4	no binding
B5	no binding
B6	no binding
B7	no binding

biological target: T9, C5 peptide 33-108 fused to GST-tag (human, UniProt P01031 33-108); test: as above
T9 construct: not shown: GST-tag (glutathione S-transferase); vector and linker not restated
T9 sequence (P01031 33-108): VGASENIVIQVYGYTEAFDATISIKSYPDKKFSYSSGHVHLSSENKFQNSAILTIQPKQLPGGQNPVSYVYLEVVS

Binder	binding result
B4	no binding
B5	no binding
B6	no binding
B7	no binding

biological target: T10, C5 peptide 52-124 fused to GST-tag (human, UniProt P01031 52-124); test: as above
T10 construct: not shown: GST-tag (glutathione S-transferase); vector and linker not restated
T10 sequence (P01031 52-124): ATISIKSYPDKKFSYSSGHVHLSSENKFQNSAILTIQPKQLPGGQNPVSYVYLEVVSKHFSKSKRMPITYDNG

Binder	binding result
B4	no binding
B5	no binding
B6	no binding
B7	no binding

Biological target: T1, recombinant cynomolgus monkey C5
Test: SPR (Biacore), 37C, pH 7.4, Ab captured on ProA/G
Description: To observe the cross-reactivity of anti-C5 antibodies against human C5 (hC5) and cynomolgus monkey C5 (cynoC5), BIACORE® kinetics analysis was performed.

Binder	Kd [nM]
B4	5.88
B5	5.44
B6	1.57
B7	4.33

biological target: T5, recombinant human C5; test: SPR (Biacore), 37C, association and dissociation at pH 5.8, Ab on ProA/G
Description: as §1

Binder	koff [s⁻¹]	kon [M⁻¹ s⁻¹]
B1	0.00869	109000
B2	0.00818	141000
B3	0.00855	133000

Biological target: T2, 481-660
Test: Western blot of E. coli lysates expressing GST-fused C5 beta-chain fragments
Description: (§2) Anti-C5 monoclonal antibodies (MAbs) were tested for binding to C5 β-chain-derived peptides in Western blot analysis. […] The E. coli samples were harvested after incubation with 1 mM Isopropyl β-D-1-thiogalactopyranoside (IPTG) for 5 hours at 37° C., and centrifuged at 20000×g for 1 min to obtain pellets.

Binder	binding result
B4	no binding
B5	no binding
B6	no binding
B7	no binding

Biological target: T3, 161-340
Test: as above
Description: as §2

Binder	binding result
B4	no binding
B5	no binding
B6	no binding
B7	no binding

Biological target: T4, 321-500
Test: as above
Description: as §2

Binder	binding result
B4	no binding
B5	no binding
B6	no binding
B7	no binding

biological target: T5, recombinant human C5; test: SPR (Biacore), 37C, association and dissociation at pH 7.4, Ab on ProA/G
Description: as §1

Binder	koff [s⁻¹]	kon [M⁻¹ s⁻¹]
B1	0.000412	1.28e+06
B2	0.000467	1.44e+06
B3	0.000423	1.53e+06

Source: patent US20180002415A1 (Chugai, published 2018)
